From patent US20240209086A1 (PETMEDIX, published 2024)

Biological target: canine CD3 on canine T cells (canine PBMC) (canine, UniProt P27597 22-202)
Experiment: cell-based or functional assay

Sequence of canine CD3 on canine T cells (canine PBMC) (P27597 22-202 limits assumed, chain 1 of 3): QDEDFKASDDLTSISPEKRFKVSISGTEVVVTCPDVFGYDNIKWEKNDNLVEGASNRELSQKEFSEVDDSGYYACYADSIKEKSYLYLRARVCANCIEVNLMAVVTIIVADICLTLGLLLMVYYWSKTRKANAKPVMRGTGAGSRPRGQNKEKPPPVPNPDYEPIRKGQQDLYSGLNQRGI
Sequence of canine CD3 on canine T cells (canine PBMC) (chain, as listed by the source limits assumed, chain 2 of 3): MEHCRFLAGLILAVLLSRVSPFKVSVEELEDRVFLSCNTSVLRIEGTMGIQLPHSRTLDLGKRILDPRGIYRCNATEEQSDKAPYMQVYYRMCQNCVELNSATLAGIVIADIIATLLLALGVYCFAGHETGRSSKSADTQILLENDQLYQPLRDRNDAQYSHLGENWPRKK
Sequence of canine CD3 on canine T cells (canine PBMC) (chain, as listed by the source limits assumed, chain 3 of 3): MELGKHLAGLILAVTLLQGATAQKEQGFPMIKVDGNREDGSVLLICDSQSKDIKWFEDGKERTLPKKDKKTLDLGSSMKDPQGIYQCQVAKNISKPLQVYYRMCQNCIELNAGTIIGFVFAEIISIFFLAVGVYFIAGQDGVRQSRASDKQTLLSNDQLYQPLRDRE

Binder	CD25 Activation, Day 6, IS	CD25 Activation, Day 6, PB	CD25 Activation, Day 9, IS	CD25 Activation, Day 9, PB	IFNy Concentration pg/ml, Day 6, IS [pg/mL]	IFNy Concentration pg/ml, Day 9, IS [pg/mL]	IFNy Concentration pg/ml, Day 9, PB [pg/mL]	Ki67 Proliferation, Day 6, IS	Ki67 Proliferation, Day 6, PB	Ki67 Proliferation, Day 9, IS
PMX175 (monospecific anti-canine CD3, canine IgG-B effector function deficient Fc) (antibody, V domains shown) VH: ELTLQESGPGLVKPSQTLSLTCVVSGGSVTSTYYWNWIRQRPGRGLEWMGYWTGTTNYNPAFQGRISITADTAKNQFSLQLSSMTTEDTAVYYCAREDLVTVGSGAFNYWGQGTLVTVSS VL: SYVLTQLPSKNVTLKQPAHITCGGDNIGSKSVHWYQQKLGQAPVLIIYYDSSRPTGIPERFSGANSGNTATLTISGALAEDEADYYCQVWDSSATWVFGEGTQLTVL	14.5	8.76	10	9.46	51	233	706	2.03	0.59	1
PMX176 (monospecific anti-canine CD3, canine IgG-B effector function deficient Fc) (antibody, V domains shown) VH: EVQLVESGGDLVKPGGSLRLSCVASGFTFSSYHMSWVRQAPGKGLQWVAYINSAGSTTSYTDAVQGRFTISRDNAKNTLYLQMNSLRAEDTAVYYCASEWIFMPWGQGSLVTVSS VL: SYVLTQLPSKNVTLKQPAHITCGGDNIGSKSVHWYQQKLGQAPVLIIYYDSSRPTGIPERFSGANSGNTATLTISGALAEDEADYYCQVWDSSAKARVFGEGTQLTVL	10.3	9.61	12.3	10.1	30.3	278	594	0.93	1.45	2.2

Second part, the binder after the results:

CD25 Activation, Day 6, IS	CD25 Activation, Day 6, PB	CD25 Activation, Day 9, IS	CD25 Activation, Day 9, PB	IFNy Concentration pg/ml, Day 6, IS [pg/mL]	IFNy Concentration pg/ml, Day 9, IS [pg/mL]	IFNy Concentration pg/ml, Day 9, PB [pg/mL]	Ki67 Proliferation, Day 6, IS	Ki67 Proliferation, Day 6, PB	Ki67 Proliferation, Day 9, IS	Binder
10.7	8.6	13.9	17	55.5	318	773	1.2	0.21	1.77	PMX180 (monospecific anti-canine CD3, canine IgG-B effector function deficient Fc) (antibody, V domains shown) VH: ELTLQESGPGLVKPSQTLSLTCVVSGGSVTSNYYWNWIRQRPGRGLEWMGYWTGSTNYNPAFQGRISITADTAKKQFSLQLRSMTIEDTAVYYCARRGIPIFFDYWGQGTLVTVSS VL: SYVLTQLPSKNVTLKQPAHITCGGDNIGSKSVHWYQQKLGQAPVLIIYYDSSRPTGIPERFSGANSGNTATLTISGALAEDEADYYCQVWDSSASVFGGGTHLTVL
8.73	22	10.9	22.9	43.4	162	2750	1.27	0.48	2.06	PMX179 (monospecific anti-canine CD3, canine IgG-B effector function deficient Fc) (antibody, V domains shown) VH: ELALQESGPGLVRPSQTLSLTCVVSGGSVTRSYYWNWIRQRPGRGLEWMGYWTGTTIYNPAFQGRISITVDTAKNQFSLHLISMTTEDTAVYYCGREGGSSLGAIAYWGQGTRVTVSS VL: SYVLTQLPSKNVTLKQPAHITCGGDNIGSKSVHWYQQKLGQAPVLIIYYDSSRPTGIPERFSGANSGNTATLTISGALAEDEADYYCQVWDSSAKAAVFGGGTHLTVL
8.02	12.6	13.7	18.4	28.8	763	2210	1.41	1.37	3.19	PMX177 (monospecific anti-canine CD3, canine IgG-B effector function deficient Fc) (antibody, V domains shown) VH: EVTLQESGPGLVKPSQTLSLTCVVSGGSVTSSFYWNWIRQRPGRGLEWMGYWTGSTNYNPAFQGRISITADTAKNQFSLHLGSMTTDDTAMYYCAREEGSWGRVYFDYWGQGTLVTVSS VL: SYVLTQLPSKNVTLKQPAHITCGGDNIGSKSVHWYQQKLGQAPVLIIYYDSSRPTGIPERFSGANSGNTATLTISGALAEDEADYYCQVWDSSTKTWVFGEGTQLTVL

Same assay, conditions: not given

Binder	Ki67 Proliferation, Day 9, PB
PMX175 (monospecific anti-canine CD3, canine IgG-B effector function deficient Fc) (antibody, V domains shown) VH: ELTLQESGPGLVKPSQTLSLTCVVSGGSVTSTYYWNWIRQRPGRGLEWMGYWTGTTNYNPAFQGRISITADTAKNQFSLQLSSMTTEDTAVYYCAREDLVTVGSGAFNYWGQGTLVTVSS VL: SYVLTQLPSKNVTLKQPAHITCGGDNIGSKSVHWYQQKLGQAPVLIIYYDSSRPTGIPERFSGANSGNTATLTISGALAEDEADYYCQVWDSSATWVFGEGTQLTVL	0.95
PMX176 (monospecific anti-canine CD3, canine IgG-B effector function deficient Fc) (antibody, V domains shown) VH: EVQLVESGGDLVKPGGSLRLSCVASGFTFSSYHMSWVRQAPGKGLQWVAYINSAGSTTSYTDAVQGRFTISRDNAKNTLYLQMNSLRAEDTAVYYCASEWIFMPWGQGSLVTVSS VL: SYVLTQLPSKNVTLKQPAHITCGGDNIGSKSVHWYQQKLGQAPVLIIYYDSSRPTGIPERFSGANSGNTATLTISGALAEDEADYYCQVWDSSAKARVFGEGTQLTVL	0

Other lines, results leading:

Ki67 Proliferation, Day 9, PB	Binder
0.58	PMX180 (monospecific anti-canine CD3, canine IgG-B effector function deficient Fc) (antibody, V domains shown) VH: ELTLQESGPGLVKPSQTLSLTCVVSGGSVTSNYYWNWIRQRPGRGLEWMGYWTGSTNYNPAFQGRISITADTAKKQFSLQLRSMTIEDTAVYYCARRGIPIFFDYWGQGTLVTVSS VL: SYVLTQLPSKNVTLKQPAHITCGGDNIGSKSVHWYQQKLGQAPVLIIYYDSSRPTGIPERFSGANSGNTATLTISGALAEDEADYYCQVWDSSASVFGGGTHLTVL
0.31	PMX179 (monospecific anti-canine CD3, canine IgG-B effector function deficient Fc) (antibody, V domains shown) VH: ELALQESGPGLVRPSQTLSLTCVVSGGSVTRSYYWNWIRQRPGRGLEWMGYWTGTTIYNPAFQGRISITVDTAKNQFSLHLISMTTEDTAVYYCGREGGSSLGAIAYWGQGTRVTVSS VL: SYVLTQLPSKNVTLKQPAHITCGGDNIGSKSVHWYQQKLGQAPVLIIYYDSSRPTGIPERFSGANSGNTATLTISGALAEDEADYYCQVWDSSAKAAVFGGGTHLTVL
0.47	PMX177 (monospecific anti-canine CD3, canine IgG-B effector function deficient Fc) (antibody, V domains shown) VH: EVTLQESGPGLVKPSQTLSLTCVVSGGSVTSSFYWNWIRQRPGRGLEWMGYWTGSTNYNPAFQGRISITADTAKNQFSLHLGSMTTDDTAMYYCAREEGSWGRVYFDYWGQGTLVTVSS VL: SYVLTQLPSKNVTLKQPAHITCGGDNIGSKSVHWYQQKLGQAPVLIIYYDSSRPTGIPERFSGANSGNTATLTISGALAEDEADYYCQVWDSSTKTWVFGEGTQLTVL
